Assay results reported in patent publication US20250313619A1, “RISANKIZUMAB COMPOSITIONS” (ABBVIE INC., priority 0001, published 2025).

Columns and labels:
[1] = Non-reduced capillary gel electrophoresis (CGE-NR / CE-SDS): main peak and LMW; type: physicochemical; conditions: compared to Process 1 reference standard DS1-RS2
Excerpt: (§1) The PLBL2 KO, PLA2G15 KO, LPL KO and wild-type process control materials were thawed and purified using Process 1 (see Example 1), while ultrafiltration/diafiltration (UF/DF) followed Process 4 (see Example 3). […] High molecular weight (HMW) by size exclusion chromatography (SEC), charge variants by weak cation exchange chromatography (WCX), low molecular weight (LMW) by non-reduced capillary electrophoresis sodium dodecyl sulfate (CE-SDS), free fatty acids (FFA) and PS20 levels were monitored during the stability study at various time points.
(§2) Antibody preparations derived from the knock-out samples and controls were tested for the presence of the three lipases by specific ELISA methods: PLBL2 and PLA2G15 were measured using CHO-specific in-house methods and LPL was measured using a commercial anti-mouse ELISA kit. PS20 stability was measured in samples that were incubated for different lengths of time (several time points over a 12-month period) and different temperatures (5° C., 25° C., 40° C.) using two different methods. One method measured the total amount of PS20 present in the sample; PS20 was quantified directly by using a RP-HPLC-CAD method. The other method assessed the breakdown of PS20 by measuring the amount of free fatty acid, mainly lauric acid that was released by hydrolysis. […] The generated signal is directly proportional to the quantity of FFAs released. […]

[2] = Size exclusion chromatography (UP-SEC/SEC): monomer and HMW; type: physicochemical; conditions: compared to Process 1 reference standard DS1-RS2
Excerpt: as §1, §2

healthy adult subjects = test: Anti-drug antibody (ADA) incidence after single 150 mg SC dose, bridging electrochemiluminescence immunoassay; type: in vivo, human; conditions: 113 days
Method: A single-dose, randomized, two-parallel-arm, open-label, multi-center study in healthy adult subjects was carried out. Subjects received a risankizumab 150 mg dose by subcutaneous (SC) injection in the abdomen using a 150 mg/ml formulation in a prefilled syringe (PFS). Arm 1: Risankizumab 150 mg/mL formulation in PFS produced by Process 4 (150 mg×1 SC injection) (test, N=132); Arm 2: Risankizumab 150 mg/mL formulation in PFS produced by Process 2 (150 mg×1 SC injection) (reference, N=130). Serial blood samples for anti-drug antibody (ADA) were collected over a period of 113 days. […]
The presence of ADA was determined using a validated titer based bridging electrochemiluminescence immunoassay as described below.
This is a qualitative assay designed to detect anti-risankizumab antibodies in human serum. Anti-drug antibodies (ADA) against risankizumab in human serum were detected using an electrochemiluminescent (ECL) immunoassay. […] This complex was bound to a blocked MSD-streptavidin (MSD-SA) plate and detected by a chemiluminescent signal that was generated when voltage was applied. […]
Samples were analyzed in a tiered approach. […]
The confirmatory assay measured the percent inhibition of ECL immunoassay signals of screened positive samples when spiked with excess risankizumab. […]

IL-23 [3] = target: T1, IL-23 (Homo sapiens, UniProt Q9NPF7); test: Binding to human IL-23
T1 sequence (Q9NPF7 20-189): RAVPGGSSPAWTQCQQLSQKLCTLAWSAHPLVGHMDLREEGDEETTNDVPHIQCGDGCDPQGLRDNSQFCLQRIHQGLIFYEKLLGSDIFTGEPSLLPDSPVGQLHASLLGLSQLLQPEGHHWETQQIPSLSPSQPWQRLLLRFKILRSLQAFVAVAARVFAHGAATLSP
T1 sequence (P29460 23-328 partner): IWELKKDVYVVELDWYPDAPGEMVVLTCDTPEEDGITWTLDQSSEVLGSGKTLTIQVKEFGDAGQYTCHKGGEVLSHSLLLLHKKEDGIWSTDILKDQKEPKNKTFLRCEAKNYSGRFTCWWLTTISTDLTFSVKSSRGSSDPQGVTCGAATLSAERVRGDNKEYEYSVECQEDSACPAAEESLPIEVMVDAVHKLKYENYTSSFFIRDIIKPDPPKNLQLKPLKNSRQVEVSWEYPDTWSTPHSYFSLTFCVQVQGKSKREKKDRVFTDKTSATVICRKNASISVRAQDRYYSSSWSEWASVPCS

IL-12 = target: T2, IL-12 (Homo sapiens, UniProt P29459+P29460); test: IL-12 effect / IL-12 stimulated IFN-γ production; type: cell-based
T2 sequence (P29459 23-219): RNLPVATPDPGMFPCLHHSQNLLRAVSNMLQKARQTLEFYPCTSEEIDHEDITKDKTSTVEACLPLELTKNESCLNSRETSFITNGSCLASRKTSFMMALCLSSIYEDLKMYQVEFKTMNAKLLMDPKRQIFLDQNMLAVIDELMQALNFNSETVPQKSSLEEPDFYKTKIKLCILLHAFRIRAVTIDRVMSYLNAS
T2 sequence (P29460 23-328): T1 sequence (P29460 23-328 partner)

ADCC activity = test: ADCC activity
Excerpt: (§3) Risankizumab has been designed with Leu234Aa and Leu235Aa mutations in Fc to diminish its Fc effector binding activity.

IL-23 [4] = target: T1, IL-23; test: Inhibition of IL-23 stimulated IL-17 production; type: cell-based; conditions: read-out: inhibition of IL-23 stimulated IL-17 production, inhibitory concentration (IC) 50
CDC activity = test: CDC activity
Excerpt: as §3

[5] = Hitchhiker protein spiking study, PS20-CAD subspecies method; type: biochemical; conditions: for activity to PS20 degradation: DP3 and DP4 materials spiked with enzyme (summary); for PS20 degradation: ~30 hours incubation at 25° C.
Excerpt: PS20-CAD subspecies method was used. This method was originally developed to qualitatively determine subspecies composition and to quantify the PS20 subspecies relative to a PS20 manufacturing standard. The HPLC system used in this study was an Agilent 1260 II infinity HPLC equipped with a quaternary pump, mobile phase degassing unit, refrigerated auto sampler, temperature controlled column compartment, and a Thermo Scientific charged aerosol detector (CAD). Data was collected by Waters Empower acquisition system. Methods for detecting PS20 using Charged Aerosol Detector (CAD) are also described in Example 10.
Since the system takes 70 minutes to finish each injection (labeled as “injection” in Table 19), repeated injections measured the degradation patterns (profiles) at different incubation times. All samples were kept in a 25° C. autosampler during the entire test.
PS20-CAD subspecies method described above was used.
The solution was mixed and tested. All samples were studied at 25° C.
The solution was mixed and tested. All samples were studied at 25° C. […] More information can be found in Table 21A.
The solution was mixed and tested. More information regarding the study design can be found in Table 21A.
The solution was mixed and tested. More information regarding the study design can be found in Table 21B below.
The solution was mixed and tested. More information regarding the study design can be found in Table 21B.

DS4-005: risankizumab Process 4 drug substance batch
LMW peak by CGE-NR [1]: smaller | HMW peak by UP-SEC [2]: smaller

Immunoglobulin G1, anti-(human interleukin 23 subunit p19) (human-Mus musculus heavy chain), disulfide with human-Mus musculus κ-chain, dimer [risankizumab]
treatment-emergent ADA incidence (healthy adult subjects): low | binding to human IL-23 (IL-23 [3]): high affinity | inhibition of IL-12 stimulated IFN-γ production (IL-12): does not inhibit | effect on IL-12 (IL-12; maximum tested concentration (33 nM)): does not affect | ADCC activity (ADCC activity): does not possess | IC50 (IL-23 [4]): < 0.01 nM | COC activity (CDC activity): does not possess

ustekinumab: comparator in the same IL-23 stimulated IL-17 production system [reference compound]
IC50 (IL-23 [4]): 0.167 nM

B1: PLA2G15: hitchhiker protein enzyme spiked into DP3/DP4 material (protein)
chain: VQRHPPVVLVPGDLGNQLEAKLDKPKVVHYLCSKRTDSYFTLWLNLELLLPVIIDCWIDNIRLVYNRTSRATQFPDGVDVRVPGFGETFSLEFLDPSKRTVGSYFHTMVESLVGWGYTRGEDLRGAPYDWRRAPNENGPYFLALREMIEEMYQMYGGPVVLVAHSMGNMYTLYFLQRQPQAWKDKYIHAFISLGAPWGGVAKTLRVLASGDNNRIPVIGPLKIREQQRSAVSTSWLLPYNHTWSHDKVFVHTPTTNYTLRDYHQFFQDIRFEDGWFMRQDTEGLVEAMMPPGVELHCLYGTGVPTPDSFYYESFPDRDPKICFGDGDGTVNLESVLQCQAWQSRQEHKVSLQELPGSEHIEMLANATTLAYLKRVLFEP
PS20 degradation pattern (profile) versus pattern observed in DP2 materials ([5]; DP3 spiked with 1 μg/mL PLA2G15, 25° C.): matches | PS20 degradation rate versus spiking level ([5]; DP4 spiked with 0.01875-0.6 ng/mg PLA2G15, 25° C.): concentration dependent PS20 degradation rates were observed

B2: PRDX6: Recombinant human Peroxiredoxin 6 protein (ab87631, Abcam) (protein, UniProt P30041 2-224, looked up)
Peroxiredoxin-6: PGGLLLGDVAPNFEANTTVGRIRFHDFLGDSWGILFSHPRDFTPVCTTELGRAAKLAPEFAKRNVKLIALSIDSVEDHLAWSKDINAYNCEEPTEKLPFPIIDDRNRELAILLGMLDPAEKDEKGMPVTARVVFVFGPDKKLKLSILYPATTGRNFDEILRVVISLQLTAEKRVATPVDWKDGDSVMVLPTIPEEEAKKLFPKGVFTKELPSGKKYLRYTPQP
activity to PS20 degradation [5]: very low activities | PS20 degradation ([5]; DP3 spiked with 5 μg/mL enzyme): no detectable PS20 degradation

B3: PLA2G7: Recombinant human PLA2G7/PAF-AH/LP-PLA2 protein (5106-PL-010, Bio-techne) (protein, UniProt Q13093 22-441, looked up)
Platelet-activating factor …: FDWQYINPVAHMKSSAWVNKIQVLMAAASFGQTKIPRGNGPYSVGCTDLMFDHTNKGTFLRLYYPSQDNDRLDTLWIPNKEYFWGLSKFLGTHWLMGNILRLLFGSMTTPANWNSPLRPGEKYPLVVFSHGLGAFRTLYSAIGIDLASHGFIVAAVEHRDRSASATYYFKDQSAAEIGDKSWLYLRTLKQEEETHIRNEQVRQRAKECSQALSLILDIDHGKPVKNALDLKFDMEQLKDSIDREKIAVIGHSFGGATVIQTLSEDQRFRCGIALDAWMFPLGDEVYSRIPQPLFFINSEYFQYPANIIKMKKCYSPDKERKMITIRGSVHQNFADFTFATGKIIGHMLKLKGDIDSNVAIDLSNKASLAFLQKHLGLHKDFDQWDCLIEGDDENLIPGTNINTTNQHIMLQNSSGIEKYN
activity to PS20 degradation [5]: moderate activities | PS20 degradation pattern (profile) versus pattern observed in DP2 materials ([5]; DP3 spiked with 5 μg/mL enzyme, 25° C.): very different | PS20 degradation ([5]; DP3 spiked with 5 μg/mL enzyme): caused PS20 degradation with a relatively high activity
